Assay [1] concerns 4T1, a breast cancer cell line. The conditions noted are these: 4T1 in C3H mice; FIG. 7.
Experimental: 2×10^6 pieces of 4T1, a breast cancer cell line, were injected into the back of C3H mice, and anticancer drugs were administered to each experimental group from the 5th day when the tumor was formed.
Assay [2] deals with anaplastic thyroid cancer cell line FRO. Kind of assay: thyroid cancer mouse model, combination with lenvatinib. The class given is in vivo, nu/nu mice. The text has this: We measured tumor size with a caliper and calculated tumor volume using the following equation: volume=½× a×b2, where a=long tumor diameter and b=short tumor diameter.
Assay [3] concerns the target T1, Recombinant mouse CXCL16 antigen (mouse, UniProt Q8BSU2 27-114, limits assumed).
T1 construct: Bought recombinant protein (503-CX, R&D systems); also called 503-CX (R&D systems)
T1 sequence: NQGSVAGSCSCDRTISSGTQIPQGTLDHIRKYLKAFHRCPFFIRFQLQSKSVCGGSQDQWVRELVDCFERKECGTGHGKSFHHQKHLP
Nature of the assay: ELISA, recombinant mouse CXCL16 immobilized on the plate, HRP-labeled anti-human IgG detection, OD 450 nm. On the procedure: To evaluate the cross-reactivity with mouse CXCL16 antigen, the same ELISA experiment was performed with recombinant mouse CXCL16 antigen (503-CX, R&D systems). The mouse CXCL16 antigen was immobilized onto 96-well plates by incubation for 2 hours at room temperature. Non-specific binding sites were blocked by incubating with 1% BSA in PBS overnight at 4° C. After coating, the plates were washed with PBS. Humanized CXCL16 antibodies at various concentration (0.00 1˜10 nM) were incubated with the immobilized antigen for 2 hours at room temperature. After binding, the plates were washed, incubated with HRP-labeled anti-human IgG antibody (W4031, Promega, USA) for 0.5 hours, and developed using the substrate solution (DY008B, R&D systems). The binding affinity of humanized antibodies was similar to that of IgG antibody.

Assay [4] has as its target T2, Recombinant human CXCL16 (rhCXCL16) protein (human, UniProt Q9H2A7 30-118, limits assumed).
T2 construct: Bought recombinant protein (976-CX, R&D systems); also called CXCL16 antigen; 976-CX (R&D systems)
T2 sequence: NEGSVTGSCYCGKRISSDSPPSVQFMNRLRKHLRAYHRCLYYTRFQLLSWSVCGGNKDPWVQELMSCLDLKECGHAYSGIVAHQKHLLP
Nature of the assay: BLI (ForteBio), antibody captured on biosensor, rhCXCL16 in solution, 25 C.

Assay [5] deals with T2, Recombinant human CXCL16 (rhCXCL16) …. The assay is described as above. On the procedure:
(§1) The binding characteristics of 25 CXCL16 antibodies were analyzed using the bio-light interferometry (ForteBio). All antibodies were diluted in freshly prepared running buffer. Antibodies were immobilized onto the surface of a series of biosensors using the capture methods at 0.3 μg/mL. Recombinant human CXCL16 (rhCXCL16) protein (100 nM) was passed over the surface to generate a binding response for 10 minutes. Binding data for the antibody and antigen interactions were collected at 25° C. on the biosensors. Then, the running buffer was passed for 10 minutes to dissociate them. The association constant (kₐ) and the dissociation constant (kₐ) were observed, and the equilibrium binding constant (KD) was calculated. […] R2: The value indicating how well the fit and experimental data correlate; X²: The measure of error between the experimental data and fitted line.
The source holds these as a separate data set.

Assay [6] has as its target T3, Recombinant human CXCL16 (rhCXCL16) protein (Homo sapiens, UniProt Q9H2A7).
T3 sequence (Q9H2A7 30-118): T2 sequence
Nature of the assay: bio-light interferometry (ForteBio) binding analysis. The conditions noted are these: antibody captured on biosensor, rhCXCL16 100 nM, 25° C.; ND = signal was not detectable. On the procedure:
as §1, with “(ka)” for “(kₐ)”, “X^2:” for “X²:”
In general terms: In BLI a coated tip is dipped into the sample, and binding shifts an interference pattern.

Where a chain is given by its changes, count along the chain named.

The values that follow come from patent publication US20240327509A1, “HUMAN CXCLI6 ANTIBODIES AND THE USE THEREOF” (CELLUS,INC., priority 2021, published 2024).

What is called Kd is the constant that tells how readily two partners part at equilibrium. Broadly, the koff is a measure of how fast the partners let go of each other. In general, kon refers to the rate constant with which the complex forms.

For the molecule `CC(=O)O[C@H]1C(=O)[C@@]2(C)[C@H]([C@H](OC(=O)c3ccccc3)[C@]3(O)C[C@H](OC(=O)[C@H](O)[C@@H](NC(=O)c4ccccc4)c4ccccc4)C(C)=C1C3(C)C)[C@]1(OC(C)=O)CO[C@@H]1C[C@@H]2O` [Taxol, paclitaxel], the “therapeutic effect (tumor growth)” value in assay [1] is on record as “did not have a clear therapeutic effect”.
With `COc1cc2nccc(Oc3ccc(NC(=O)NC4CC4)c(Cl)c3)c2cc1C(N)=O` [lenvatinib], the “therapeutic effect (tumor growth)” value is recorded as “therapeutic effect of lenvatinib was lowered” in assay [2] (after phase 1, rate the same as that of the control group) and “therapeutic effect of lenvatinib was maintained” in assay [2] (phase 1 (up to day 22), lenvatinib orally 30 mg/kg/day five times a week).

B1: Chimeric antibody HC0LC0 (antibody, V domains shown)
VH: AVQLVESGGGLVQPKESLKISCAASGFTFSNAVMNWVRQAPGKGLEWVARIRTKPNNYATFYADSVKGRFTFSRDDSKSMVYLQMDNLKTEDTAMYYCTAWTTEGIYWGQGTLVTVSS
VL: DIVMTQSPSSLAVSAGETVTINCKSSQSLLYSGNQKNYLAWYQQKPGQSPKLLIYWASTRQSGVPDRFIGSGSGTDFTLTISSVQAEDLAIYYCQQYYDTPWTFGGGTKLELKR
notes: also called CLS-A1HC0LC0; variant antibody
For the molecule B1, in assay [3], the binding result was “no binding (tested: 1500 ng/mL)”. Also, the “Res@3.7 nM” value in assay [4] was found to be 0.13. Further, in assay [5], the Kd is less than 0.001 nM and the koff is less than 1e-07 s⁻¹.

B2: HC5LC5 (antibody, human IgG1, kappa, V domains shown)
VH: B1 VH with A1E, K15G, E16G, I20L, P41S, S79N, M80T, V81A, D86N, N87S
VL: B1 VL with T18R, V19A, V84L, L89V
notes: Humanized; human IgG1 / kappa constant domains; also called HCSLCS; humanized CXCL16 antibody HC5LC5
B2: the binding result in assay [3] is reported as “no binding (tested: 1500 ng/mL)”. In assay [4], the “Res@3.7 nM” value was found to be 0.231. In assay [5], the dissociation constant Kd is less than 0.001 nM, the off-rate (koff) was less than 1e-07 s⁻¹ and the kon was 18200 M⁻¹ s⁻¹.

B3: HC5LC2 (antibody, human IgG1, kappa, V domains shown)
VH: B1 VH with A1E, K15G, E16G, I20L, P41S, S79N, M80T, V81A, D86N, N87S
VL: B1 VL with A15L, V19A, S49P, I69T, S73A, L110V, L112I
notes: Humanized; human IgG1 / kappa constant domains; also called HCSLC2; humanized CXCL16 antibody HC5LC2
Turning to B3, in assay [3], the binding result is “no binding (tested: 1500 ng/mL)”. In assay [4], the “Res@3.7 nM” value worked out at 0.152. For the same molecule, in assay [5], the dissociation constant (Kd) came to 2.5 nM, the off-rate constant (koff) was 6.07e-05 s⁻¹ and the kon was 24300 M⁻¹ s⁻¹.

B4: HC0LC0: chimeric antibody that binds to human CXCL16; rat variable regions (CDRs SEQ ID NOs 12-17), heavy SEQ ID NO: 32, light SEQ ID NO: 34 (antibody)
heavy: ACCMGWTLVFLFLLSVTAGVHSAVQLVESGGGLVQPKESLKISCAASGFTFSNAVMNWVRQAPGKGLEWVARIRTKPNNYATFYADSVKGRFTFSRDDSKSMVYLQMDNLKTEDTAMYYCTAWTTEGIYWGQGTLVTVSSAETTAPSVYPLAPGTALKSNSMVTLGCLVKGYFPEPVTVTWNSGALSSGVHTFPAVLQSGLYTLTSSVTVPSSTWSSQAVTCNVAHPASSTKVDKKIVPRECNPCGCTGSEVSSVFIFPPKTKDVLTITLTPKVTCVVVDISQNDPEVRFSWFIDDVEVHTAQTHAPEKQSNSTLRSVSELPIVHRDWLNGKTFKCKVNSGAFPAPIEKSISKPEGTPRGPQVYTMAPPKEEMTQSQVSITCMVKGFYPPDIYTEWKMNGQPQENYKNTPPTMDTDGSYFLYSKLNVKKETWQQGNTFTCSVLHEGLHNHHTEKSLSHSPGK
light: ACCMVSSAQFLGLLLLCFQGTRCDIVMTQSPSSLAVSAGETVTINCKSSQSLLYSGNQKNYLAWYQQKPGQSPKLLIYWASTRQSGVPDRFIGSGSGTDFTLTISSVQAEDLAIYYCQQYYDTPWTFGGGTKLELKRADAAPTVSIFPPSTEQLATGGASVVCLMNNFYPRDISVKWKIDGTERRDGVLDSVTDQDSKDSTYSMSSTLSLTKADYESHNLYTCEVVHKTSSSPVVKSFNRNEC
B4: the kd in assay [6] was less than 1e-07 s⁻¹.
